Data: patent EP4549938A1

Molecular target: No. 1 APOA2-like protein (vasculitis-associated apolipoprotein A2, VAP2) (human)
Assay: Western blot band score with VasSF, COVID-19 patient sera at hospital admission (Fig. 4)

B1: VasSF, single chain variable region fragment (ScFv) (scFv, V domains shown)
VH: QVHLVESGGGLVQPGRSLRLSCAVSGFTFASYAMHWVRQAPGKGLEWVAGISKDGSNKRHADSLEGRFTISRDNSKNTLYLQVSGLRAEDTAVYYCARSQDPTDFDWLLSEHWGQGTLVTVSS
signal score: 4 /2 µL serum
